The text below walks through data of the nanobody polyreactivity screen of Harvey et al. (2022).

The data set in a line: yeast display, Sf9 membrane polyspecificity reagent, FACS + sequencing; frameworks hold sequencing errors. A digest of the protocol:
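Synthetic nanobody libraries on Saccharomyces cerevisiae BJ5465 were galactose-induced for 36–48 hours, stained 1 hour at 4 °C with 10% biotinylated, detergent-solubilized Sf9 membrane reagent and enriched on streptavidin microbeads. FACS then separated cells into low and high (top ~1%) gates by anti-HA (expression) and streptavidin (reagent binding) fluorescence. Genes were colony-PCR amplified, MiSeq 2 × 250 sequenced and CDR-length filtered. A clone's polyreactivity label is that of its gate of origin.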
For “QVQLVESGGGLVQAGGSLRLSCAPSGFTFVFYAMGWYRQAPGKERELVAAISSRGGSTYYADSVKGRFTISRDNAKNTVYLQMNSLKPEDTAVYYCNVVSTYWTTYEEYYWGQGTQVTVSS”, the “polyreactivity (PSR sort gate)” value is given as “high polyreactivity”. With “QVQLVESGGGLVQAGGSLRLSCAPSGFTFVYYAMGWYRQAPGKERELVASISGGGRTYYADSVKGRFTISRDNAKNTVYLQMNSLKPEDTAVYYCAAEQYIRPYYRWVWVSYGYWGQGSQVTVSS” the entry was “high polyreactivity”; with “QVQLVESGGGLVQAGGSLRLSCAPSGFTFYPYAMGWSRQAPGKERELVAAIRYSGGSTYYADSVKGRFTISRDNAKNTVYLQMNSLKPEATAVYYCAADGSNPWYRNSWSRYRFGYWGQGTQVTVSS”, “high polyreactivity”; with “QVQLVESGGGLVQAGGSLRLSCAPSGGIFGRNAMGWYRQAPGKESELVAGITNGGSTTYADSVKGRFTISRDNAKNTVYLQMNSLKPEDTAVYYCAVQLYRRWPYYQTHGYDYWGQGTQVTVTS”, “low polyreactivity”. In the case of “QVQLVESGGGLVQAGGSLRLSCAPSGGTFLSNVMVWYRQAPGKERELVAAISSRGGSTYFADSVKGRFTISRDNAKNNVYFQMNSLKPVDTAVYYCNVRAAHYKDRQYDYWGQGTQGTVSS” it was “high polyreactivity”. Regarding “QVQLVESGGGLVQAGGSLRLSCAPSGIIFPEYDMGWYRQPPGKERELVAAITKSDGRTYYADSVKGRFTISRDNAKNSVYLQMNSLKPEDTAVYYCNADPSVVAYVGFVSWGQGTQVTLSS”, the “polyreactivity (PSR sort gate)” value is “low polyreactivity”.

As for “QVQLVESGGGLVQAGGSLRLSCAPSGITFQRYVMGWYRQAPGKERELVAAISFSGSSTYYADSVKGRFTISRDNAKNTVYLQMNSLKPEDTAVYYCAADGSVPKYVPYPRYYGYGYWGQGSQVTVSS”, the “polyreactivity (PSR sort gate)” value is “high polyreactivity”.

Take “QVQLVESGGGLVQAGGSLRLSCAPSGITFRYYAMGWYRQAPGKERELVAAITRSGSTTYADSVKGRFTISRDNAKNTVYLQMNSLKPEVTAVYYCAVDYYYLTGGVDYWGQGTQVTVSS”: the “polyreactivity (PSR sort gate)” value was “low polyreactivity”.

As for “QVQLVESGGGLVQAGGSLRLSCAPSGLTIGHYAMGWYRQAPGKERELVAAISSGGSTYYADSVKGRFTISRDNAKNTVYLQMNSLKPEDTAVYYCAAVTVGTAYYARTFYYWGQGTQVTVSS”, the “polyreactivity (PSR sort gate)” value was “high polyreactivity”. With “QVQLVESGGGLVQAGGSLRLSCAPSGNIFYINTMGWYRPAPGKERELVAAIDASDGSTYYADSVKGRFTISRDNAKNTVYLQMNSLKPEDTAVYYCATRRGYDSVYYLYTLWYYYWGQGTQVTVSS” the entry was “low polyreactivity”; with “QVQLVESGGGLVQAGGSLRLSCAPSGNTFWDNAMGWYRQAPGKERELVAAIRWSTGSTHYADSVKGRFTISRDNAKNTVYLQMNSVKPEDTAVYYCDATDYYYYRDKYYGYDYWGQGNQVTVSS”, “low polyreactivity”. Regarding “QVQLVESGGGLVQAGGSLRLSCAPSGRIFAGYTMGWYRQAPGKERELVAAISWSGGRTYYADSVKGRFTISRDNAKNTVYLQMNSLKPEDTAVYYCAKDGRYYSHYNYWGQGTQVTVSS”, the “polyreactivity (PSR sort gate)” value is listed as “high polyreactivity”.

For the sequence “QVQLVESGGGLVQAGGSLRLSCAPSGRIFDYYAMGWYRQAPGKESELVAAISGSGGSTYYADSVKGRFTISRDNAKNTVYLQMNSLKPEHTAVYYCAYGYLYCYDYWGQGTQVTVSS”, the “polyreactivity (PSR sort gate)” value was “low polyreactivity”. With “QVQLVESGGGLVQAGGSLRLSCAPSGRIFGTNDMGWYRQAPGKERELVADITSGGSTNYADSVKGSFTISRDNAMNTVYLPMNSLKPEDSAVYYCNARHHNKVARFDYWGQGTQVTVSS” the entry was “low polyreactivity”; with “QVQLVESGGGLVQAGGSLRLSCAPSGRIFPYYAMGRYRQAPGKERELVATITASSGSTYYADSVKGRFTISRDNAKNTVYLQMNSLKPEDTAVYYCAAGFVYRPGSYIRFDYWGQGTQVTVSS”, “high polyreactivity”; with “QVQLVESGGGLVQAGGSLRLSCAPSGRIFQYNAMGWYRQAPGKERELGAAISNSTTRTYYADSVKGRFTISRDNAKNTVYLQMNSLKPEDTGVYYCAARGYFWSSYKYDYWVQGTQVTVSS”, “high polyreactivity”. As for “QVQLVESGGGLVQAGGSLRLSCAPSGRIFWYNAMGWYRQAPGKERELVAGISSSGTRTYYADSVKGRFTISRDNAKNTVYLQMNSLKPEDTAVYYCAAGYDLSYYWYDYWGQGTQVTVSS”, the “polyreactivity (PSR sort gate)” value is “low polyreactivity”. “QVQLVESGGGLVQAGGSLRLSCAPSGRIIGTNAMRWYIQAPRKERELVAAITWSGGSTYYADSVKGRFTISRDNAKNTVFLQMISLKPEDTAVYYCAKDYGYGPRFYYWGQGTQLTVSS”: the “polyreactivity (PSR sort gate)” value is listed as “high polyreactivity”. With “QVQLVESGGGLVQAGGSLRLSCAPSGRIIRKNAMGWSRQAPGKERELVAAITSVGSTYYADSVKGRFTISRDNAMNTVYLQMNSLKPEDTAVYYCNALQWSYNRGGYWGQGTQVTVSS” the entry was “high polyreactivity”; with “QVQLVESGGGLVQAGGSLRLSCAPSGRTFNDYAMGWYRQAPGKESELVAAIDSDGDTNYADSVKGRFTISRDNAKNTVYLQMNSLKPEDTAVYYCNAVRLVVQEWYYYFTFDYWGQGTQVTVSS”, “low polyreactivity”; with “QVQLVESGGGLVQAGGSLRLSCAPSGRTFNPYALGWYRPAPGKEREFVYADSVKGRFTISRDNAKNTVYLQMNSLKPEDTAVYYCAADVYPDTLHPYNYDYWGQGTQVTLSS”, “low polyreactivity”.

For “QVQLVESGGGLVQAGGSLRLSCAPSGRTFQLYAMGWSRQAPGKERELVAGITITGGSTYYADSVKGRFTISRDNAKNTVYLLMNSLKPEDTAVYYCNKPRFSERYGMGYWGQGTQVTVSS”, the “polyreactivity (PSR sort gate)” value was “low polyreactivity”.

For “QVQLVESGGGLVQAGGSLRLSCAPSGRTFRRYAMGWYRQAPGKEMEFVAAISRRTASTYYADSVKGRFTISRDNAKNTDYLQMNSLKPEDTAVYYCATKSGYSVGNYRYGYWVQGTQVTVSS”, the “polyreactivity (PSR sort gate)” value was “low polyreactivity”.

As to “QVQLVESGGGLVQAGGSLRLSCAPSGRTFYYYAMGWYRQAPGKERELVAAISRGSTYYADSVKGRFTISRDNAKNTVYLQMNSLKPEDTAVYYCAARYHNYWNRYIYDYWGQGTQVTVSS”, the “polyreactivity (PSR sort gate)” value is “high polyreactivity”. Consider “QVQLVESGGGLVQAGGSLRLSCAPSGSIFLHYAMGRYRQAPGKERDLVAAISRSGGRTYYADSVKGRFTISRDNAKNTVYLQMNSLKPEDTAVYYCAARVPRYRKDSVWAYYYWGQGTQVTVSS”, for which the “polyreactivity (PSR sort gate)” value is listed as “high polyreactivity”. Turning to “QVQLVESGGGLVQAGGSLRLSCAPSGSIFVHNAMGWYRQAPGKERELVAALDGGGGTYYADSVKGRFTISRDNAKNTVYLQMNSLKPEDTAVYYCAARYFHHYWGDLEVEFDYWGQGTQVTVSS”, the “polyreactivity (PSR sort gate)” value was “low polyreactivity”. Take “QVQLVESGGGLVQAGGSLRLSCAPSGSILRYYAMGWYRQAPGKEREFVAAISWSGTSTYYADSVKGRFTISRDIAKNTVYLQMNSLKPEDTAVYYCAARTYYVPYYYWGQGTQVTVSS”: the “polyreactivity (PSR sort gate)” value is “high polyreactivity”. On to “QVQLVESGGGLVQAGGSLRLSCAPSGSTFAYYAMGWYRQAPGKEREFVAAISTRGGSTYYADSVKGRFTISRDNAKNTVYFQMNSLKPEDTAVYYCAAGYFIYSWRIRFDYLGQGTQVTVSS”, for which the “polyreactivity (PSR sort gate)” value is on record as “high polyreactivity”. In the case of “QVQLVESGGGLVQAGGSLRLSCAPSGSTFDIYAMGWYRQAPGKERELVARISSGGGRTYYADSVKGRFTISRDNAKNTVYLQMNSLKPEDTAVYYCARDNEPDYYSYPYDYWGQGTQVTVSS” it was “low polyreactivity”; in that of “QVQLVESGGGLVQAGGSLRLSCAPSGSTFNFNAMGWYRQAPGKERELVAAISKSGTRTYYADSVKGRFTISRDNAKNTVYLQMNSLKPEDTAVYYCAAPAISSYDHGYWGQGTQVTVSS”, “high polyreactivity”.
